# Data from US20130089868A1.
# Molecular target: MLS-NR2B (mitochondrial targeting signal sequence, myc-epitope, GST and NR2B residues 1271-1311) [GST: P08515]
# Test: percentage of green fluorescent HEK-293 cells with GFP clustering after Ca^2+ influx (FIG. 5)
substance,measurement,value
GFP-T286D-α-CaMKII (from UniProt P11275 1-478) (enzyme),fold increase of the cell count against wild-type GFP-α-CaMKII,> 2 fold
